Like-named read-outs stand apart in the source and are kept apart here.
Tests used:
C1s [1] = assay: C1s activity inhibition
C1s [2] = assay: C1s activity inhibition; remark: listed apart in the source

IC50 (C1s [1]): 1.8 nM | IC50 (C1s [2]): 1.7 nM
B1: rC1inh (other)
chain: NPNATSSSSQDPESLQDRGEGKVATTVISKMLFVEPILEVSSLPTTNSTTNSATKITANTTDEPTTQPTTEPTTQPTIQPTQPTTQLPTDSPTQPTTGSFCPGPVTLCSDLESHSTEAVLGDALVDFSLKLYHAFSAMKKVETNMAFSPFSIASLLTQVLLGAGENTKTNLESILSYPKDFTCVHQALKGFTTKGVTSVSQIFHSPDLAIRDTFVNASRTLYSSSPRVLSNNSDANLELINTWVAKNTNNKISRLLDSLPSDTRLVLLNAIYLSAKWKTTFDPKKTRMEPFHFKNSVIKVPMMNSKKYPVAHFIDQTLKAKVGQLQLSHNLSLVILVPQNLKHRLEDMEQALSPSVFKAIMEKLEMSKFQPTLLTLPRIKVTTSQDMLSIMEKLEFFDFSYDLNLCGLTEDPDLQVSAMQHQTVLELTETGVEAAAASAISVARTLLVFEVQQPFLFVLWDQQHKFPVFMGRVYDPRA
